Test [1] concerns the target T1, F-actin (rabbit skeletal muscle actin, polymerized) (rabbit), P68135. Briefly: co-sedimentation; F-actin co-sedimentation, conditions B2 (PIPES pH 6.8, 100 mM NaCl); fixed 6 μM myotilin fragment in 20 μl mixed with pre-polymerized F-actin (0 to 60 μM) in 20 μl; one site-specific binding fit; apparent Kd. Particulars: remark: other sources report otherwise.
The target in test [2] is F-actin (rabbit skeletal muscle actin, polymerized), P68135. The test is described as follows: F-actin co-sedimentation assay. Particulars: chain shown with the change; for response: 8 μM protein, percentage of theoretical total binding (100%), parent: est. 95, read off a plot.
The target of test [3] is T1, F-actin (rabbit skeletal muscle actin, …). Briefly: co-sedimentation; F-actin co-sedimentation, conditions B1 (HEPES pH 7.4); fixed 16 μM myotilin construct in 20 μl mixed with pre-polymerized F-actin (0–120 μM) in 20 μl; room temperature 30 min, 125,000 × g; densitometry, one site-specific binding fit; apparent Kd. Particulars: remark: other sources report otherwise.

Where a chain is given by its changes, count along the chain named. Names and notes keep the numbering of the source.

B1: Full-length myotilin with N-terminal thioredoxin tag (Trx-MYOT), Q9UBF9 1-498 (natural protein)
chain: MFNYERPKHFIQSQNPCGSRLQPPGPETSSFSSQTKQSSIIIQPRQCTEQRFSASSTLSSHITMSSSAFPASPQQHAGSNPGQRVTTTYNQSPASFLSSILPSQPDYNSSKIPSAMDSNYQQSSAGQPINAKPSQTANAKPIPRTPDHEIQGSKEALIQDLERKLKCKDTLLHNGNQRLTYEEKMARRLLGPQNAAAVFQAQDDSGAQDSQQHNSEHARLQVPTSQVRSRSTSRGDVNDQDAIQEKFYPPRFIQVPENMSIDEGRFCRMDFKVSGLPAPDVSWYLNGRTVQSDDLHKMIVSEKGLHSLIFEVVRASDAGAYACVAKNRAGEATFTVQLDVLAKEHKRAPMFIYKPQSKKVLEGDSVKLECQISAIPPPKLFWKRNNEMVQFNTDRISLYQDNTGRVTLLIKDVNKKDAGWYTVSAVNEAGVTTCNTRLDVTARPNQTLPAPKQLRVRPTFSKYLALNGKGLNVKQAFNPEGEFQRLAAQSGLYESEEL
As for B1, the Kd in test [1] was 0.29 µM.

B2: Myotilin Ig1Ig2^250–444 (Ig1Ig2 tandem), Q9UBF9 K359A (protein)
chain: PRFIQVPENMSIDEGRFCRMDFKVSGLPAPDVSWYLNGRTVQSDDLHKMIVSEKGLHSLIFEVVRASDAGAYACVAKNRAGEATFTVQLDVLAKEHKRAPMFIYKPQSKAVLEGDSVKLECQISAIPPPKLFWKRNNEMVQFNTDRISLYQDNTGRVTLLIKDVNKKDAGWYTVSAVNEAGVTTCNTRLDVTARP
For the molecule B2, the response in test [2] was determined as 72 % bound.

B3: Myotilin Ig1Ig2^250–444 (Ig1Ig2 tandem), Q9UBF9 Q356A (protein)
chain: B2 chain with Q107A, A110K
As to B3, in test [2], the response was 94 % bound.

B4: Myotilin Ig1Ig2^250–444 (Ig1Ig2 tandem), Q9UBF9 K354A; K359A (protein)
chain: B2 chain with K105A
As to B4, in test [2], the response is 42 % bound.

B5: Myotilin Ig1Ig2^250–444 (Ig1Ig2 tandem), Q9UBF9 K367A (protein)
chain: B2 chain with A110K, K118A
With B5, the response in test [2] was found to be 87 % bound.

B6: Myotilin Ig1Ig2^250–444 (Ig1Ig2 tandem), Q9UBF9 R405K (protein)
chain: B2 chain with A110K, R156K
B6 yielded a Kd in test [2] (B1 conditions (asterisk)) of 7.5 µM.

B7: Myotilin Ig1Ig2^250–444 (Ig1Ig2 tandem), Q9UBF9 K358A (protein)
chain: B2 chain with K109A, A110K
In the case of B7, in test [2], the response worked out at 80 % bound.

B8: Myotilin Ig1Ig2^250–444 (Ig1Ig2 tandem), Q9UBF9 250-444 (domain or fragment)
chain: B2 chain with A110K
For the molecule B8, the Kd in test [1] worked out at 12.9 µM; in test [3] it was 9.2 µM.

B9: Myotilin Ig1Ig2^250–444 (Ig1Ig2 tandem), Q9UBF9 K354A (protein)
chain: B2 chain with K105A, A110K
On to B9, for which the response in test [2] came out at 55 % bound.

B10: Myotilin Ig1Ig2^250–444 (Ig1Ig2 tandem), Q9UBF9 K411A (protein)
chain: B2 chain with A110K, K162A
B10: in test [2], the response stood at 87 % bound.

These data come from publication PMC8062120.
